Assay: Activity with ONPG, release of o-nitrophenol (ONP) at 405 nm
Format: biochemical
Settings: for Time (min) to increase A405 by: 0.025 / Time (min) to increase A405 by: 0.05 / Time (min) to increase A405 by: 0.1 / Time (min) to increase A405 by: 0.2 / Time (min) to increase A405 by: 0.4 / Time (min) to increase A405 by: 0.8 / Time (min) to increase A405 by: 1.6 / Time (min) to increase A405 by: 3.2: Table 8, ONPG 5 mg/ml
Description: The activity of HIGAL and MTGAL with ONPG was tested by mixing 200 microliters (normally 5.5 mg/ml) ONPG in 50 mM sodium acetate, 1 mM CaCl2, 0.01% Triton X-100, pH 6.5 with 25 microliters galactanase (normally 1 mg/ml) in the well of a microtiter plate. Release of o-nitrophenol (ONP) was measured at room temperature at 405 nm every 10 seconds normally for 30 min on a SpectraMaxPlus (Molecular Devices). Effects on the observed release of ONP was studied with varied enzyme concentration, ONPG concentration and with addition of galactose (Gal), beta-1,4-galactobiose (Gal2) (Megazyme), beta-1,4-galactotriose (Gal3), beta-1,4-galactotetraose (Gal4), glucose (Glu), arabinose (Ara), galacturonic acid (GalA), maltose (Mal) or maltotriose (Mal3).
In Tables 8-11 below, incubation times required to increase the observed absorbance at 405 nm by given amounts are listed. Cells marked ‘n.r.’ indicate that the increase in absorbance was not reached in the experiment. In general, the initial increase in absorbance at 405 nm was very slow, but after a lag phase the rate of ONP release often increased drastically—often approximately exponentially. The most likely explanation for the observed kinetics is that ONPG reacts with the enzyme to give an enzyme-galactosyl intermediate which hydrolyses very slowly. Instead, the Gal of the intermediate is released by transglycosylation, initially with ONPG or added sugar as acceptor. In cases where the rate of ONP release increases, these transglycosylation products are even better acceptors than the initial ones. […] More likely, Gal inhibits the subsequent transglycosylation, which requires binding of ONPG to the +1 and +2 subsites, e.g., by binding to the +2 subsite. With 50 mg/ml Gal added (results not shown) release of ONP was even slower with only insignificant increase of absorbance at 405 nm in 30 min.

B1: MTGAL: GH Family 53 galactanase from Myceliophthora thermophila, SEQ ID NO: 1 (wild type parent) (protein, listed as Myceliophthora thermophila)
chain: ALTYRGVDWSSVVVEERAGVSYKNTNGNAQPLENILAANGVNTVRQRVWVNPADGNYNLDYNIAIAKRAKAAGLGVYIDFHYSDTWADPAHQTMPAGWPSDIDNLSWKLYNYTLDAANKLQNAGIQPTIVSIGNEIRAGLLWPTGRTENWANIARLLHSAAWGIKDSSLSPKPKIMIHLDNGWDWGTQNWWYTNVLKQGTLELSDFDMMGVSFYPFYSSSATLSALKSSLDNMAKTWNKEIAVVETNWPISCPNPRYSFPSDVKNIPFSPEGQTTFITNVANIVSSVSRGVGLFYWEPAWIHNANLGSSCADNTMFSQSGQALSSLSVFQRI
modifications: mat_peptide (1)..()
Question: What does the source list for B1?
Answer: Slowing of ONP release by addition of Gal (Gal 5 mg/ml): about a factor of two; Time (min) to increase A405 by: 0.025 (enzyme 28 μg/ml, no sugar): 40.4 min; Time (min) to increase A405 by: 0.05 (enzyme 28 μg/ml, no sugar): n.r.; Time (min) to increase A405 by: 0.1 (enzyme 28 μg/ml, no sugar): n.r.; Time (min) to increase A405 by: 0.2 (enzyme 28 μg/ml, no sugar): n.r.; Time (min) to increase A405 by: 0.4 (enzyme 28 μg/ml, no sugar): n.r.; Time (min) to increase A405 by: 0.8 (enzyme 28 μg/ml, no sugar): n.r.; Time (min) to increase A405 by: 1.6 (enzyme 28 μg/ml, no sugar): n.r.; Time (min) to increase A405 by: 3.2 (enzyme 28 μg/ml, no sugar): n.r.; Time (min) to increase A405 by: 0.025 (enzyme 55 μg/ml, Gal 5 mg/ml): 40.2 min; Time (min) to increase A405 by: 0.05 (enzyme 55 μg/ml, Gal 5 mg/ml): n.r.; Time (min) to increase A405 by: 0.1 (enzyme 55 μg/ml, Gal 5 mg/ml): n.r.; Time (min) to increase A405 by: 0.2 (enzyme 55 μg/ml, Gal 5 mg/ml): n.r.; Time (min) to increase A405 by: 0.4 (enzyme 55 μg/ml, Gal 5 mg/ml): n.r.; Time (min) to increase A405 by: 0.8 (enzyme 55 μg/ml, Gal 5 mg/ml): n.r.; Time (min) to increase A405 by: 1.6 (enzyme 55 μg/ml, Gal 5 mg/ml): n.r.; Time (min) to increase A405 by: 3.2 (enzyme 55 μg/ml, Gal 5 mg/ml): n.r.; Time (min) to increase A405 by: 0.025 (enzyme 55 μg/ml, no sugar): 29.9 min; Time (min) to increase A405 by: 0.05 (enzyme 55 μg/ml, no sugar): 42.5 min; Time (min) to increase A405 by: 0.1 (enzyme 55 μg/ml, no sugar): 54.5 min; Time (min) to increase A405 by: 0.2 (enzyme 55 μg/ml, no sugar): n.r.; Time (min) to increase A405 by: 0.4 (enzyme 55 μg/ml, no sugar): n.r.; Time (min) to increase A405 by: 0.8 (enzyme 55 μg/ml, no sugar): n.r.; Time (min) to increase A405 by: 1.6 (enzyme 55 μg/ml, no sugar): n.r.; Time (min) to increase A405 by: 3.2 (enzyme 55 μg/ml, no sugar): n.r.; Time (min) to increase A405 by: 0.025 (enzyme 110 μg/ml, Gal 5 mg/ml): 26.9 min; Time (min) to increase A405 by: 0.05 (enzyme 110 μg/ml, Gal 5 mg/ml): 44.5 min; Time (min) to increase A405 by: 0.1 (enzyme 110 μg/ml, Gal 5 mg/ml): n.r.; Time (min) to increase A405 by: 0.2 (enzyme 110 μg/ml, Gal 5 mg/ml): n.r.; Time (min) to increase A405 by: 0.4 (enzyme 110 μg/ml, Gal 5 mg/ml): n.r.; Time (min) to increase A405 by: 0.8 (enzyme 110 μg/ml, Gal 5 mg/ml): n.r.; Time (min) to increase A405 by: 1.6 (enzyme 110 μg/ml, Gal 5 mg/ml): n.r.; Time (min) to increase A405 by: 3.2 (enzyme 110 μg/ml, Gal 5 mg/ml): n.r.; Time (min) to increase A405 by: 0.025 (enzyme 110 μg/ml, no sugar): 14.0 min; Time (min) to increase A405 by: 0.05 (enzyme 110 μg/ml, no sugar): 20.5 min; Time (min) to increase A405 by: 0.1 (enzyme 110 μg/ml, no sugar): 26.4 min; Time (min) to increase A405 by: 0.2 (enzyme 110 μg/ml, no sugar): 31.4 min; Time (min) to increase A405 by: 0.4 (enzyme 110 μg/ml, no sugar): 34.5 min; Time (min) to increase A405 by: 0.8 (enzyme 110 μg/ml, no sugar): 39.2 min; Time (min) to increase A405 by: 1.6 (enzyme 110 μg/ml, no sugar): 43.9 min; Time (min) to increase A405 by: 3.2 (enzyme 110 μg/ml, no sugar): 46.7 min
